Laboratory results reported in publication PMC10404701.

Biological target: TTLL7-treated microtubules (mouse brain tubulin) (mouse (endogenous in brain)) (UniProt P68369)
Assay: TIRF microscopy, single-molecule imaging (kymographs, dwell time); MTs immobilised on a cover glass by a tubulin antibody; Kif5c-GFP in imaging buffer (BRB80, 1 mM ATP, 20 μM taxol); 35 °C; dwell times from kymographs, events shorter than 0.2 s left out, single exponential fit

UniProt P68369, sequence (P68369 whole entry, chain 1 of 2): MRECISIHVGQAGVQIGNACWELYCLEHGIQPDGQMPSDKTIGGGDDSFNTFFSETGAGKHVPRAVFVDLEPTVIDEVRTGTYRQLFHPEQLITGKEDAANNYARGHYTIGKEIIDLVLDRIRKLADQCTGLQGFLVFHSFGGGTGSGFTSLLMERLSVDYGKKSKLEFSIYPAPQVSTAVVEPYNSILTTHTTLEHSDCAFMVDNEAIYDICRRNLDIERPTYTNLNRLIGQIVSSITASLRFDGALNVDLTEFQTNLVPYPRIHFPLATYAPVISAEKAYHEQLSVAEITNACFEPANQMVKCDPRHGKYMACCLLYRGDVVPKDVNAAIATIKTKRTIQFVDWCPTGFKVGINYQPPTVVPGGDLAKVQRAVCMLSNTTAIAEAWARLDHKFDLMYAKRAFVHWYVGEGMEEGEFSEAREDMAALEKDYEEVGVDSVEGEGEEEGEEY
UniProt P68369, sequence (Q7TMM9 whole entry, chain 2 of 2, further chain): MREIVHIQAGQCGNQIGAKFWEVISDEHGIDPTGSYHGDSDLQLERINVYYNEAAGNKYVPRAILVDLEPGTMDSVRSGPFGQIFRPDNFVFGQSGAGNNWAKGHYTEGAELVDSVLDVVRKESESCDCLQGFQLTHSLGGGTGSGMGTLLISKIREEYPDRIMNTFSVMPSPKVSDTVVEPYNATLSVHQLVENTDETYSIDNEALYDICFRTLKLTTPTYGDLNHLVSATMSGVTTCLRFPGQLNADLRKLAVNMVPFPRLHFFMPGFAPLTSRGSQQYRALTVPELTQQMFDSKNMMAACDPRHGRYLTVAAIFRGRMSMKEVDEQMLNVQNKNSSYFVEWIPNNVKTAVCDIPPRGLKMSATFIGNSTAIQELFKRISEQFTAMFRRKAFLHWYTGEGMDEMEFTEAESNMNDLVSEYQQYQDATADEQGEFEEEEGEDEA

dwell time: 0.5 s
Substance: Kif5c-GFP (amino acids: 1–430) (from UniProt P56536 1-430) (domain or fragment)
